Data taken from US20070003517A1 (UNIVERSITY OF MASSACHUSETTS, published 2007).

Key:
[1] = tested on: T1, JIP-1 (as added to the in vitro protein kinase assay)
T1 sequence: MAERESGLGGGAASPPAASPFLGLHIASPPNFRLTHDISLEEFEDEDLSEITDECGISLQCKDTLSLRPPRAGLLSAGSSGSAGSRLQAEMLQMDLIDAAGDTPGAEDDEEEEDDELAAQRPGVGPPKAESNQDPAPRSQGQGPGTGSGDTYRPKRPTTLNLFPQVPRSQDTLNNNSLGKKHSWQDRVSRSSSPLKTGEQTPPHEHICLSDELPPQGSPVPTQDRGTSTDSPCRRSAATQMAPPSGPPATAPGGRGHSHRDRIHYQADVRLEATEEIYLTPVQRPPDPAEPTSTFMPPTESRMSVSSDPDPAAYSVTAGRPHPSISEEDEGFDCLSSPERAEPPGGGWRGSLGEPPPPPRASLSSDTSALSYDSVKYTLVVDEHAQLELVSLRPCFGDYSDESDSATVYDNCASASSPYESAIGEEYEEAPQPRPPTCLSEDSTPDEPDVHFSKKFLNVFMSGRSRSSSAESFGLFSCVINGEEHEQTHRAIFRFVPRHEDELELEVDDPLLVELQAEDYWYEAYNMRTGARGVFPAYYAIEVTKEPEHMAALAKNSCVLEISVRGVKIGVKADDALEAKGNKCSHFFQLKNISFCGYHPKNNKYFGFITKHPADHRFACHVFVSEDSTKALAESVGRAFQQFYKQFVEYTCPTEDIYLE

[2] = biological target: T2, Flag epitope-tagged JNK1 (cell lysate) (human, UniProt P45983-2 1-384, limits assumed); assay: GST pull-down from cell lysate, anti-Flag (M2) immunoblot
T2 construct: written N-terminal here
T2 sequence (P45983 other isoform, or with tags, fused parts or gaps limits assumed): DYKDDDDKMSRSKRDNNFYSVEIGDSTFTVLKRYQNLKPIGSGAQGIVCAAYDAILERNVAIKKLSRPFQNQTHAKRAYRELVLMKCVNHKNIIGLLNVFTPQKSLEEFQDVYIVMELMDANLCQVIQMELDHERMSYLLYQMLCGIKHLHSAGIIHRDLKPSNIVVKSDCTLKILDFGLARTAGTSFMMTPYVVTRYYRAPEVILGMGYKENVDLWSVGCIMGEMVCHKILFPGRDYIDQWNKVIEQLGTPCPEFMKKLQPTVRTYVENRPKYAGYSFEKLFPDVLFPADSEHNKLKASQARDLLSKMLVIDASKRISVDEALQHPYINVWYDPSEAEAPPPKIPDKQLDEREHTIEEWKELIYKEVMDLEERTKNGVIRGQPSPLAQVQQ
Experimental: To test whether JIP-1 binding to JNK is also isoform-dependent, a binding assay was utilized. Cell lysates (1 ml in TLB) containing JNK1, JNK2, or p38 MAP kinase, each tagged with the Flag epitope, were incubated with 5 μg GST-fusion proteins pre-bound to 10 μl glutathione-Sepharose. […] The GST-ATF2 fusion protein contains residues 1-109 of ATF2, and the GST-Jun fusion protein contains residues 1-79 of c-Jun. After incubation for one hour at 4° C. and three washes with TLB, bound proteins were detected by protein immunoblot analysis with the M2 monoclonal antibody, which is specific for the Flag epitope. Dérijard, et al., supra; Sluss et al., supra; Gupta et al., supra. When ATF2 or c-jun GST fusion proteins were used in this assay, binding to JNK1 was greater than binding to JNK2. This finding is consistent with the results of previous studies. […] The level of binding of these fusion proteins to JNK1 was similar to the level of binding to JNK2.

Molecule: p38 (immune complex from CHO cells)
- phosphorylation of substrate (GST-ATF2) by p38, immune complex kinase assay [1]: JIP-1 caused no significant change in the phosphorylation of substrates by the related MAP kinases p38 and ERK2

Molecule: ERK2 (immune complex from CHO cells)
- phosphorylation of substrate (myelin basic protein) by ERK, immune complex kinase assay [1]: JIP-1 caused no significant change in the phosphorylation of substrates by the related MAP kinases p38 and ERK2

Molecule: JNK (immune complex from CHO cells)
- phosphorylation of c-Jun (GST-Jun) by JNK, immune complex kinase assay [1]: JIP-1 markedly inhibited the phosphorylation of c-Jun by JNK

B1: GST-JIP-1 fusion protein containing residues 203-281 of JIP-1 (other)
chain: PHEHICLSDELPPQGSPVPTQDRGTSTDSPCRRSAATQMAPPSGPPATAPGGRGHSHRDRIHYQADVRLEATEEIYLTP
notes: not shown: glutathione-S-transferase (GST) of vector pGEX-3X
- binding result [2]: no binding

B2: GST-JIP-1 fusion protein containing residues 164-240 of JIP-1 (other)
chain: PQVPRSQDTLNNNSLGKKHSWQDRVSRSSSPLKTGEQTPPHEHICLSDELPPQGSPVPTQDRGTSTDSPCRRSAATQ
notes: as for B1
- binding result [2]: no binding
